Biological target: Human IgE antibody (human)
Assay: cell-based or functional assay

B1: FP132 (Fc fusion)
chain: DKTHTCPPCPAPEAAGAPSVFLFPPKPKDTLMISRTPEVTCVVVDVSHEDPEVKFNWYVDGVEVHNAKTKPREEQQNSTYRVVSVLTVLHQDWLNGKEYKCKVSNKALKAPIEKTISKAKGQPREPQVYTLPPSRDELTKNQVSLTCLVKGFYPSDIAVEWESNGQPENNYKTTPPVLDSDGSFFLYSKLTVDKSRWQQGNVFSCSVMHEALHNHYTQKSLSLSPGGGGGSGGGGSTALGRRKAEDRIKETLWADGVKIDEKDFEHIKSSHEDYFAVEYGKGSGYYDVNKKMDSEDTALCVGAVVTNMFHWWVDQNRENIEKFKKQDPENNGVMKFEGVKEATVDELNEFYRDNRDNYADQSRFFDLIKKHFGNKALNPEELFELYFNGFYYGSSHRYIEDNEPAQNNLFSKVLENNKLLNPERSYGIDGFSNNVINALKSHKVLGLVYTTPLRYRHIISMWGADIDQDGKVKAIYVTDSDDREITFNDNSKRRIGMIRYDVLVDDNGNIRFTGKGATHKEEGAIYAGLYSLSRGDEVWEDYFKKYPEVQENL
- EC50 CE-SDS IgE: 1.27 nM

B2: FP2 (Fc fusion)
chain: DKTHTCPPCPAPEAAGAPSVFLFPPKPKDTLMISRTPEVTCVVVDVSHEDPEVKFNWYVDGVEVHNAKTKPREEQQNSTYRVVSVLTVLHQDWLNGKEYKCKVSNKALKAPIEKTISKAKGQPREPQVYTLPPSRDELTKNQVSLTCLVKGFYPSDIAVEWESNGQPENNYKTTPPVLDSDGSFFLYSKLTVDKSRWQQGNVFSCSVMHEALHNHYTQKSLSLSPGGGGSGGGGSGGGGSTALGRRKAEDRIKETLWADGVKIDEKDFEHIKSSHEDYFAVEYGKGSGYYDVNKKMDSEDTALCVGAVVTNMFHWWVDQNRENIEKFKKQDPENNGVMKFNGVKEATVDELNHFYKEYQSNKYADQSRFFDLIKKHFGNKALNPEELFELYFNGFYYNSSHRYIEDNKPAQNNLFSKVLENNKLLNPERSYGIDGFSNNVINALKSHKVLGLVHTTPLRYRHIISMWGADIDQDGKVKAIYVTDSDDREITFNDNSKRRIGMIRYDVLVDDNGNIRFTGKGATHKEEGAIYAGLYSLSRGDEVWEDYFKKYPEVQENL
- EC50 CE-SDS IgE: 212 nM
- EC50 MSD IgE: 140 nM

B3: FP3 (Fc fusion)
chain: DKTHTCPPCPAPEAAGAPSVFLFPPKPKDTLMISRTPEVTCVVVDVSHEDPEVKFNWYVDGVEVHNAKTKPREEQQNSTYRVVSVLTVLHQDWLNGKEYKCKVSNKALKAPIEKTISKAKGQPREPQVYTLPPSRDELTKNQVSLTCLVKGFYPSDIAVEWESNGQPENNYKTTPPVLDSDGSFFLYSKLTVDKSRWQQGNVFSCSVMHEALHNHYTQKSLSLSPGGGGSGGGGSGGGGSTALGRRKAEDRIKETLWADGVKIDEKDFEHIKSSHEDYFAVEYGKGSGYYDVNKKMDSEDTALCVGAVVTNMFHWWVDQNRENIEKFKKQDPENNGVMKFNGVKEATVDELNHFYKEYQSNKYADQSRFFDLIKKHFGNKALNPEELFELYFNGFYYQSSHRYIEDNKPAQNNLFSKVLENNKLLNPERSYGIDGFSNNVINALKSHKVLGLVHTTPLRYRHIISMWGADIDQDGKVKAIYVTDSDDREITFNDNSKRRIGMIRYDVLVDDNGNIRFTGKGATHKEEGAIYAGLYSLSRGDEVWEDYFKKYPEVQENL
- EC50 CE-SDS IgE: 71.5 nM
- EC50 MSD IgE: 114 nM

B4: FP6 (Fc fusion)
chain: DKTHTCPPCPAPEAAGAPSVFLFPPKPKDTLMISRTPEVTCVVVDVSHEDPEVKFNWYVDGVEVHNAKTKPREEQQNSTYRVVSVLTVLHQDWLNGKEYKCKVSNKALKAPIEKTISKAKGQPREPQVYTLPPSRDELTKNQVSLTCLVKGFYPSDIAVEWESNGQPENNYKTTPPVLDSDGSFFLYSKLTVDKSRWQQGNVFSCSVMHEALHNHYTQKSLSLSPGGGGSGGGGSGGGGSTALGRRKAEDRIKETLWADGVKIDEKDFEHIKSSHEDYFAVEYGKGSGYYDVNKKMDSEDTALCVGAVVTNMFHWWVDQNRENIEKFKKQDPENNGVMKFEGVKEATVDELNHFYKEYQSNKYADQSRFFDLIKKHFGNKALNPEELFELYFNGFYYQSSHRYIEDNEPAQNNLFSKVLENNKLLNPERSYGIDGFSNNVINALKSHKVLGLVHTTPLTYRHIISMWGADIDQDGKVKAIYVTDSDDREITFNDNSKRRIGMIRYDVLVDDNGNIRFTGKGATHKEEGAIYAGLYSLSRGDEVWEDYFKKYPEVQENL
- EC50 MSD IgE: 99.4 nM

B5: FP11 (Fc fusion)
chain: DKTHTCPPCPAPEAAGAPSVFLFPPKPKDTLMISRTPEVTCVVVDVSHEDPEVKFNWYVDGVEVHNAKTKPREEQQNSTYRVVSVLTVLHQDWLNGKEYKCKVSNKALKAPIEKTISKAKGQPREPQVYTLPPSRDELTKNQVSLTCLVKGFYPSDIAVEWESNGQPENNYKTTPPVLDSDGSFFLYSKLTVDKSRWQQGNVFSCSVMHEALHNHYTQKSLSLSPGGGGSGGGGSGGGGSTALGRRKAEDRIKETLWADGVKIDEKDFEHIKSSHEDYFAVEYGKGSGYYDVNKKMDSEDTALCVGAVVTNMFHWWVDQNRENIEKFKKQDPENNGVMKFEGVKEATVDELNHFYRDNRDNYADQSRFFDLIKKHFGNKALNPEELFELYFNGFYYGSSHRYIEDNEPAQNNLFSKVLENNKLLNPERSYGIDGFSNNVINALKSHKVLGLVHTTPLRYRHIISMWGADIDQDGKVKAIYVTDSDDREITFNDNSKRRIGMIRYDVLVDDNGNIRFTGKGATHKEEGAIYAGLYSLSRGDEVWEDYFKKYPEVQENL
- EC50 CE-SDS IgE: 68.5 nM

B6: FP121 (Fc fusion)
chain: DKTHTCPPCPAPEAAGAPSVFLFPPKPKDTLMISRTPEVTCVVVDVSHEDPEVKFNWYVDGVEVHNAKTKPREEQQNSTYRVVSVLTVLHQDWLNGKEYKCKVSNKALKAPIEKTISKAKGQPREPQVYTLPPSRDELTKNQVSLTCLVKGFYPSDIAVEWESNGQPENNYKTTPPVLDSDGSFFLYSKLTVDKSRWQQGNVFSCSVMHEALHNHYTQKSLSLSPGGGGSGGGGSGGGGSTALGRRKAEDRIKETLWADGVKIDEKDFEHIKSSHEDYFAVEYGKGSGYYDVNKKMDSEDTALCVGAVVTNMFHWWVDQNRENIEKFKKQDPENNGVMKFEGVKEATVDELNEFYRDNRDNYADQSRFFDLIKKHFGNKALNPEELFELYFNGFYYGSSHRYIEDNEPAQNNLFSKVLENNKLLNPERSYGIDGFSNNVINALKSHKVLGLVYTTPLRYRHIISMWGADIDQDGKVKAIYVTDSDDREITFNDNSKRRIGMIRYDVLVDDNGNIRFTGKGATHKEEGAIYAGLYSLSRGDEVWEDYFKKYPEVQENL
- EC50 CE-SDS IgE: 1.22 nM
- EC50 MSD IgE: 1.25 nM

B7: FP15 (Fc fusion)
chain: DKTHTCPPCPAPEAAGAPSVFLFPPKPKDTLMISRTPEVTCVVVDVSHEDPEVKFNWYVDGVEVHNAKTKPREEQQNSTYRVVSVLTVLHQDWLNGKEYKCKVSNKALKAPIEKTISKAKGQPREPQVYTLPPSRDELTKNQVSLTCLVKGFYPSDIAVEWESNGQPENNYKTTPPVLDSDGSFFLYSKLTVDKSRWQQGNVFSCSVMHEALHNHYTQKSLSLSPGGGGSGGGGSGGGGSTALGRRKAEDRIKETLWADGVKIDEKDFEHIKSSHEDYFAVEYGKGSGYYDVNKKMDSEDSALCVGAVVTNMFHWWVDQNRENIEKFKKQDPENNGVMKFEGVKEATVDELNHFYRDNRDNYADQSRFFDLIKKHFGNKALNPEELFELYFNGFYYGSSHRYIEDNEPAQNNLFSKVLENNKLLNPERSYGIDGFSNNVINALKSHKVLGLVHTTPLTYRHIISMWGADIDQDGKVKAIYVTDSDDREITFNDNSKRRIGMIRYDVLVDDNGNIRFTGKGATHKEEGAIYAGLYSLSRGDEVWEDYFKKYPEVQENL
- EC50 CE-SDS IgE: 54.7 nM

B8: FP12 (Fc fusion)
chain: DKTHTCPPCPAPEAAGAPSVFLFPPKPKDTLMISRTPEVTCVVVDVSHEDPEVKFNWYVDGVEVHNAKTKPREEQQNSTYRVVSVLTVLHQDWLNGKEYKCKVSNKALKAPIEKTISKAKGQPREPQVYTLPPSRDELTKNQVSLTCLVKGFYPSDIAVEWESNGQPENNYKTTPPVLDSDGSFFLYSKLTVDKSRWQQGNVFSCSVMHEALHNHYTQKSLSLSPGGGGSGGGGSGGGGSTALGRRKAEDRIKETLWADGVKIDEKDFEHIKSSHEDYFAVEYGKGSGYYDVNKKMDSEDTALCVGAVVTNMFHWWVDQNRENIEKFKKQDPENNGVMKFEGVKEATVDELNHFYRDNRDNYADQSRFFDLIKKHFGNKALNPEELFELYFNGFYYGSSHRYIEDNEPAQNNLFSKVLENNKLLNPERSYGIDGFSNNVINALKSHKVLGLVYTTPLRYRHIISMWGADIDQDGKVKAIYVTDSDDREITFNDNSKRRIGMIRYDVLVDDNGNIRFTGKGATHKEEGAIYAGLYSLSRGDEVWEDYFKKYPEVQENL
- EC50 CE-SDS IgE: 43.3 nM
- EC50 MSD IgE: 0.753 nM

B9: FP14 (Fc fusion)
chain: DKTHTCPPCPAPEAAGAPSVFLFPPKPKDTLMISRTPEVTCVVVDVSHEDPEVKFNWYVDGVEVHNAKTKPREEQQNSTYRVVSVLTVLHQDWLNGKEYKCKVSNKALKAPIEKTISKAKGQPREPQVYTLPPSRDELTKNQVSLTCLVKGFYPSDIAVEWESNGQPENNYKTTPPVLDSDGSFFLYSKLTVDKSRWQQGNVFSCSVMHEALHNHYTQKSLSLSPGGGGSGGGGSGGGGSTALGRRKAEDRIKETLWADGVKIDEKDFEHIKSSHEDYFAVEYGKGSGYYDVNKKMDSEDTALCVGAVVTNMFHWWVDQNRENIEKFKKQDPENNGVMKFEGVKEATVDELNHFYRDNRDNYADQSRFFDLIKKHFGNKALNPEELFELYFNGFYYGSSHRYIEDNEPAQNNLFSKVLENNKLLNPERSYGIDGFSNNVINALKSHKVLGLVYTTPLTYRHIISMWGADIDQDGKVKAIYVTDSDDREITFNDNSKRRIGMIRYDVLVDDNGNIRFTGKGATHKEEGAIYAGLYSLSRGDEVWEDYFKKYPEVQENL
- EC50 CE-SDS IgE: 31.9 nM

B10: FP17 (Fc fusion)
chain: DKTHTCPPCPAPEAAGAPSVFLFPPKPKDTLMISRTPEVTCVVVDVSHEDPEVKFNWYVDGVEVHNAKTKPREEQQNSTYRVVSVLTVLHQDWLNGKEYKCKVSNKALKAPIEKTISKAKGQPREPQVYTLPPSRDELTKNQVSLTCLVKGFYPSDIAVEWESNGQPENNYKTTPPVLDSDGSFFLYSKLTVDKSRWQQGNVFSCSVMHEALHNHYTQKSLSLSPGGGGSGGGGSGGGGSGGGGSGGGGSGGGGSTALGRRKAEDRIKETLWADGVKIDEKDFEHIKSSHEDYFAVEYGKGSGYYDVNKKMDSEDTALCVGAVVTNMFHWWVDQNRENIEKFKKQDPENNGVMKFNGVKEATVDELNHFYKEYQSNKYADQSRFFDLIKKHFGNKALNPEELFELYFNGFYYGSSHRYIEDNKPAQNNLFSKVLENNKLLNPERSYGIDGFSNNVINALKSHKVLGLVHTTPLRYRHIISMWGADIDQDGKVKAIYVTDSDDREITFNDNSKRRIGMIRYDVLVDDNGNIRFTGKGATHKEEGAIYAGLYSLSRGDEVWEDYFKKYPEVQENL
- EC50 CE-SDS IgE: 56.3 nM

From US20250340857A1 (SEISMIC THERAPEUTIC, published 2025)
